For test [1], the target named is recombinant His-tagged human FcγRIa (human) (UniProt P12314). Briefly: SPR (Biacore), His-tagged FcγRIa captured on anti-His chip, antibody in solution, resonance units against antibody concentration.
In test [2] the target is recombinant His-tagged human FcγRIIIa (176-Val [V]) (human) (UniProt P08637). Briefly: SPR (Biacore), His-tagged FcγRIIIa-V captured on anti-His chip, antibody in solution, resonance units against antibody concentration.
Chain of recombinant His-tagged human FcγRIIIa (176-Val [V]) (human) (P08637 17-208 F176V limits assumed): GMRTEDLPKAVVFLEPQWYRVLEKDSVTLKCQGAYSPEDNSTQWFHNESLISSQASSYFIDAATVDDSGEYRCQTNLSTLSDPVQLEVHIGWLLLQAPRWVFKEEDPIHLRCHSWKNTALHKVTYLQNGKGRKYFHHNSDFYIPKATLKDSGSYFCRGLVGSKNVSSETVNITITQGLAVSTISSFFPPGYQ

Chain of recombinant His-tagged human FcγRIa (human) (P12314 16-288 limits assumed): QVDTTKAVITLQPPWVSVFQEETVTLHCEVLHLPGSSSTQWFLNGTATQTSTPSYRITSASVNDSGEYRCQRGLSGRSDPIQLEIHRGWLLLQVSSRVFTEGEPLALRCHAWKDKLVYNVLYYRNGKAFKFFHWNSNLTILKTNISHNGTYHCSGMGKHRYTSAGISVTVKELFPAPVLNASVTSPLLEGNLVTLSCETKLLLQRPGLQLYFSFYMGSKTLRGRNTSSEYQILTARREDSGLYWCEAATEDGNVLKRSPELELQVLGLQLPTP

As to “IgG1-b12 (anti-HIV gp120 antibody, wild-type IgG1 Fc)”, the EC50 (read off the curve) in test [1] was 60 nM; in test [2], 400 nM.

Source of the values: US20250289899A1.
